{"source": "patent US20140087995A1", "about": "(published 2014)", "binders": {"B1": {"name": "N^ε1-[2-[2-[2-[[(4S)-4-carboxy-4-(19-carboxynonadecanoylamino)butanoyl]amino]ethoxy]ethoxy]acetyl]-[Ser14,Arg17,Pro21,Pro27,Pro31]-h-amylin (peptide)", "peptide": "K([AEEA-γGlu-C20 diacid])CNTATCATQRLASFLRHSSPNFGAIPSSTPVGSNTY-NH2", "modifications": "disulfide 2-7; N-terminus assumed", "SMILES": "CC[C@H](C)[C@H](NC(=O)[C@H](C)NC(=O)CNC(=O)[C@H](Cc1ccccc1)NC(=O)[C@H](CC(N)=O)NC(=O)[C@@H]1CCCN1C(=O)[C@H](CO)NC(=O)[C@H](CO)NC(=O)[C@H](Cc1c[nH]cn1)NC(=O)[C@H](CCCNC(=N)N)NC(=O)[C@H](CC(C)C)NC(=O)[C@H](Cc1ccccc1)NC(=O)[C@H](CO)NC(=O)[C@H](C)NC(=O)[C@H](CC(C)C)NC(=O)[C@H](CCCNC(=N)N)NC(=O)[C@H](CCC(N)=O)NC(=O)[C@@H](NC(=O)[C@H](C)NC(=O)[C@@H]1CSSC[C@H](NC(=O)[C@@H](N)CCCCNC(=O)COCCOCCNC(=O)CC[C@H](NC(=O)CCCCCCCCCCCCCCCCCCC(=O)O)C(=O)O)C(=O)N[C@@H](CC(N)=O)C(=O)N[C@@H]([C@@H](C)O)C(=O)N[C@@H](C)C(=O)N[C@@H]([C@@H](C)O)C(=O)N1)[C@@H](C)O)C(=O)N1CCC[C@H]1C(=O)N[C@@H](CO)C(=O)N[C@@H](CO)C(=O)N[C@H](C(=O)N1CCC[C@H]1C(=O)N[C@H](C(=O)NCC(=O)N[C@@H](CO)C(=O)N[C@@H](CC(N)=O)C(=O)N[C@H](C(=O)N[C@@H](Cc1ccc(O)cc1)C(N)=O)[C@@H](C)O)C(C)C)[C@@H](C)O", "notes": "also called compound 73"}, "B2": {"name": "N^ε1-[(4S)-4-carboxy-4-(19-carboxynonadecanoylamino)butanoyl]-[Arg14,Arg17,Pro21,Pro27,Pro34]-h-amylin (peptide)", "peptide": "K([γGlu-C20 diacid])CNTATCATQRLARFLRHSSPNFGAIPSSTNVGPNTY-NH2", "modifications": "disulfide 2-7; N-terminus assumed", "SMILES": "CC[C@H](C)[C@H](NC(=O)[C@H](C)NC(=O)CNC(=O)[C@H](Cc1ccccc1)NC(=O)[C@H](CC(N)=O)NC(=O)[C@@H]1CCCN1C(=O)[C@H](CO)NC(=O)[C@H](CO)NC(=O)[C@H](Cc1c[nH]cn1)NC(=O)[C@H](CCCNC(=N)N)NC(=O)[C@H](CC(C)C)NC(=O)[C@H](Cc1ccccc1)NC(=O)[C@H](CCCNC(=N)N)NC(=O)[C@H](C)NC(=O)[C@H](CC(C)C)NC(=O)[C@H](CCCNC(=N)N)NC(=O)[C@H](CCC(N)=O)NC(=O)[C@@H](NC(=O)[C@H](C)NC(=O)[C@@H]1CSSC[C@H](NC(=O)[C@@H](N)CCCCNC(=O)CC[C@H](NC(=O)CCCCCCCCCCCCCCCCCCC(=O)O)C(=O)O)C(=O)N[C@@H](CC(N)=O)C(=O)N[C@@H]([C@@H](C)O)C(=O)N[C@@H](C)C(=O)N[C@@H]([C@@H](C)O)C(=O)N1)[C@@H](C)O)C(=O)N1CCC[C@H]1C(=O)N[C@@H](CO)C(=O)N[C@@H](CO)C(=O)N[C@H](C(=O)N[C@@H](CC(N)=O)C(=O)N[C@H](C(=O)NCC(=O)N1CCC[C@H]1C(=O)N[C@@H](CC(N)=O)C(=O)N[C@H](C(=O)N[C@@H](Cc1ccc(O)cc1)C(N)=O)[C@@H](C)O)C(C)C)[C@@H](C)O", "notes": "also called compound 65"}, "B3": {"name": "N^ε1-[2-[2-[2-[[(4S)-4-carboxy-4-(19-carboxynonadecanoylamino)butanoyl]amino]ethoxy]ethoxy]acetyl]-[Thr14,Arg17,Pro21,Pro27,Pro31]-h-amylin (peptide)", "peptide": "K([AEEA-γGlu-C20 diacid])CNTATCATQRLATFLRHSSPNFGAIPSSTPVGSNTY-NH2", "modifications": "disulfide 2-7; N-terminus assumed", "SMILES": "CC[C@H](C)[C@H](NC(=O)[C@H](C)NC(=O)CNC(=O)[C@H](Cc1ccccc1)NC(=O)[C@H](CC(N)=O)NC(=O)[C@@H]1CCCN1C(=O)[C@H](CO)NC(=O)[C@H](CO)NC(=O)[C@H](Cc1c[nH]cn1)NC(=O)[C@H](CCCNC(=N)N)NC(=O)[C@H](CC(C)C)NC(=O)[C@H](Cc1ccccc1)NC(=O)[C@@H](NC(=O)[C@H](C)NC(=O)[C@H](CC(C)C)NC(=O)[C@H](CCCNC(=N)N)NC(=O)[C@H](CCC(N)=O)NC(=O)[C@@H](NC(=O)[C@H](C)NC(=O)[C@@H]1CSSC[C@H](NC(=O)[C@@H](N)CCCCNC(=O)COCCOCCNC(=O)CC[C@H](NC(=O)CCCCCCCCCCCCCCCCCCC(=O)O)C(=O)O)C(=O)N[C@@H](CC(N)=O)C(=O)N[C@@H]([C@@H](C)O)C(=O)N[C@@H](C)C(=O)N[C@@H]([C@@H](C)O)C(=O)N1)[C@@H](C)O)[C@@H](C)O)C(=O)N1CCC[C@H]1C(=O)N[C@@H](CO)C(=O)N[C@@H](CO)C(=O)N[C@H](C(=O)N1CCC[C@H]1C(=O)N[C@H](C(=O)NCC(=O)N[C@@H](CO)C(=O)N[C@@H](CC(N)=O)C(=O)N[C@H](C(=O)N[C@@H](Cc1ccc(O)cc1)C(N)=O)[C@@H](C)O)C(C)C)[C@@H](C)O", "notes": "also called compound 75"}, "B4": {"name": "N^ε1-[(4S)-4-carboxy-4-(19-carboxynonadecanoylamino)butanoyl]-[Ala14,Arg17,Pro21,Pro27,His34]-h-amylin (peptide)", "peptide": "K([γGlu-C20 diacid])CNTATCATQRLAAFLRHSSPNFGAIPSSTNVGHNTY-NH2", "modifications": "disulfide 2-7; N-terminus assumed", "SMILES": "CC[C@H](C)[C@H](NC(=O)[C@H](C)NC(=O)CNC(=O)[C@H](Cc1ccccc1)NC(=O)[C@H](CC(N)=O)NC(=O)[C@@H]1CCCN1C(=O)[C@H](CO)NC(=O)[C@H](CO)NC(=O)[C@H](Cc1c[nH]cn1)NC(=O)[C@H](CCCNC(=N)N)NC(=O)[C@H](CC(C)C)NC(=O)[C@H](Cc1ccccc1)NC(=O)[C@H](C)NC(=O)[C@H](C)NC(=O)[C@H](CC(C)C)NC(=O)[C@H](CCCNC(=N)N)NC(=O)[C@H](CCC(N)=O)NC(=O)[C@@H](NC(=O)[C@H](C)NC(=O)[C@@H]1CSSC[C@H](NC(=O)[C@@H](N)CCCCNC(=O)CC[C@H](NC(=O)CCCCCCCCCCCCCCCCCCC(=O)O)C(=O)O)C(=O)N[C@@H](CC(N)=O)C(=O)N[C@@H]([C@@H](C)O)C(=O)N[C@@H](C)C(=O)N[C@@H]([C@@H](C)O)C(=O)N1)[C@@H](C)O)C(=O)N1CCC[C@H]1C(=O)N[C@@H](CO)C(=O)N[C@@H](CO)C(=O)N[C@H](C(=O)N[C@@H](CC(N)=O)C(=O)N[C@H](C(=O)NCC(=O)N[C@@H](Cc1c[nH]cn1)C(=O)N[C@@H](CC(N)=O)C(=O)N[C@H](C(=O)N[C@@H](Cc1ccc(O)cc1)C(N)=O)[C@@H](C)O)C(C)C)[C@@H](C)O", "notes": "also called compound 93"}, "B5": {"name": "N^ε1-[(4S)-4-carboxy-4-(19-carboxynonadecanoylamino)butanoyl]-[Ala14,Arg17,Pro21,Pro27,Pro34]-h-amylin (peptide)", "peptide": "K([γGlu-C20 diacid])CNTATCATQRLAAFLRHSSPNFGAIPSSTNVGPNTY-NH2", "modifications": "disulfide 2-7; N-terminus assumed", "SMILES": "CC[C@H](C)[C@H](NC(=O)[C@H](C)NC(=O)CNC(=O)[C@H](Cc1ccccc1)NC(=O)[C@H](CC(N)=O)NC(=O)[C@@H]1CCCN1C(=O)[C@H](CO)NC(=O)[C@H](CO)NC(=O)[C@H](Cc1c[nH]cn1)NC(=O)[C@H](CCCNC(=N)N)NC(=O)[C@H](CC(C)C)NC(=O)[C@H](Cc1ccccc1)NC(=O)[C@H](C)NC(=O)[C@H](C)NC(=O)[C@H](CC(C)C)NC(=O)[C@H](CCCNC(=N)N)NC(=O)[C@H](CCC(N)=O)NC(=O)[C@@H](NC(=O)[C@H](C)NC(=O)[C@@H]1CSSC[C@H](NC(=O)[C@@H](N)CCCCNC(=O)CC[C@H](NC(=O)CCCCCCCCCCCCCCCCCCC(=O)O)C(=O)O)C(=O)N[C@@H](CC(N)=O)C(=O)N[C@@H]([C@@H](C)O)C(=O)N[C@@H](C)C(=O)N[C@@H]([C@@H](C)O)C(=O)N1)[C@@H](C)O)C(=O)N1CCC[C@H]1C(=O)N[C@@H](CO)C(=O)N[C@@H](CO)C(=O)N[C@H](C(=O)N[C@@H](CC(N)=O)C(=O)N[C@H](C(=O)NCC(=O)N1CCC[C@H]1C(=O)N[C@@H](CC(N)=O)C(=O)N[C@H](C(=O)N[C@@H](Cc1ccc(O)cc1)C(N)=O)[C@@H](C)O)C(C)C)[C@@H](C)O", "notes": "also called compound 94"}}, "note": "Numbered stars: 1 amine (or outer) side, 2 acyl side, 3 side chain; on linkers, the order of the positions; unused ones are H or OH. Bridge positions count the residues as written; N and C are the ends. Side chains are listed from the residue outwards. Ends that are not written are not given here. * marks the point of attachment. C20 diacid = O=C(O)CCCCCCCCCCCCCCCCCCC(=O)*; γGlu = O=C(O)[C@H](CCC(=O)[*:2])N[*:1]; AEEA = NCCOCCOCC(=O)O", "data": [{"molecular_target": "T1, human calcitonin receptor (human, UniProt P30988 25-474)", "T1 construct": "whole, on cells; Used as cell membranes; also called hCTR; hCT", "T1 sequence (looked up)": "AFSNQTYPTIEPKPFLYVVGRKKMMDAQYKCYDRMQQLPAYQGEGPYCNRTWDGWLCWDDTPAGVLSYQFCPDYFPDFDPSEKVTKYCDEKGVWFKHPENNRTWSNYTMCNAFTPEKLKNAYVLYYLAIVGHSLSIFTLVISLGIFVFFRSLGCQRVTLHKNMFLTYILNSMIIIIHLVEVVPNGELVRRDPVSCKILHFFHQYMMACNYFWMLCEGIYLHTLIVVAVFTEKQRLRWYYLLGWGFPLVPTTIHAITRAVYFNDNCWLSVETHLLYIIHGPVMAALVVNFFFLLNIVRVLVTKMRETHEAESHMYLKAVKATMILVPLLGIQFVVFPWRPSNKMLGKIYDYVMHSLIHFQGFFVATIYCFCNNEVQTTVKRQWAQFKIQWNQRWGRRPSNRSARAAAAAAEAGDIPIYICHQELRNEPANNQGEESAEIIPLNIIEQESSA", "experiment": "ratio of hCTR IC50 to hAmylin-R IC50 (reference: human amylin receptor)", "how_it_was_run": "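Competition binding by SPA uses membrane preparations (35 ng/μL final) in pH 7.4 Hepes buffer with 1 mM CaCl2 and 5 mM MgCl₂. Incubation lasts 120 min at 25° C, and IC₅₀ comes from one-site fitting.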", "values": [{"binder": "B1", "Ratio hCT/hAmylin binding": 51.7}, {"binder": "B2", "Ratio hCT/hAmylin binding": 82.4}, {"binder": "B3", "Ratio hCT/hAmylin binding": 91.4}, {"binder": "B4", "Ratio hCT/hAmylin binding": 101}, {"binder": "B5", "Ratio hCT/hAmylin binding": 46.3}]}, {"molecular_target": "T1, human calcitonin receptor", "experiment": "SPA competition on BHK cell membranes, 125I-calcitonin as radioligand (Assay VII)", "how_it_was_run": "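BHK hCTR membranes 35 ng/μL + SPA beads 0.05 mg/well; buffer 50 mM Hepes pH 7.4, 1 mM CaCl2, 5 mM MgCl₂, 0.1% OA, 0.02% Tween20. 120 min, 25° C., shaking. Scintillation count; IC50 by one-site binding competition.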", "units": {"IC50": "nM"}, "values": [{"binder": "B1", "IC50": 5.38}, {"binder": "B2", "IC50": 53.5}, {"binder": "B3", "IC50": 60.9}, {"binder": "B4", "IC50": 17.8}, {"binder": "B5", "IC50": 6.86}]}]}
